Experimental data: patent publication US11135246B2, “Peptides and combination of peptides for use in immunotherapy against leukemias and other cancers” (Immatics Biotechnologies GmbH, priority 2017, dated 2021)

What was measured:
[1] = biological target: HLA-A*03:01 (Homo sapiens, UniProt P04439); assay: MHC binding assay, UV-ligand exchange with β2m ELISA, HLA-A*03:01; details: peptide exchange yield
From the text: (§1) Candidate peptides for T cell based therapies according to the present invention were further tested for their MHC binding capacity (affinity). The individual peptide-MHC complexes were produced by UV-ligand exchange, where a UV-sensitive peptide is cleaved upon UV-irradiation, and exchanged with the peptide of interest as analyzed. Only peptide candidates that can effectively bind and stabilize the peptide-receptive MHC molecules prevent dissociation of the MHC complexes. To determine the yield of the exchange reaction, an ELISA was performed based on the detection of the light chain (β2m) of stabilized MHC complexes. The assay was performed as generally described in Rodenko et al. (Rodenko et al., 2006).
(§2) 96 well MAXISorp plates (NUNC) were coated over night with 2 ug/ml streptavidin in PBS at room temperature, washed 4× and blocked for 1 h at 37° C. in 2% BSA containing blocking buffer. Refolded HLA-A*02:01/MLA-001 monomers served as standards, covering the range of 15-500 ng/ml. Peptide-MHC monomers of the UV-exchange reaction were diluted 100-fold in blocking buffer. Samples were incubated for 1 h at 37° C., washed four times, incubated with 2 ug/ml HRP conjugated anti-β2m for 1 h at 37° C., washed again and detected with TMB solution that is stopped with […]. Absorption was measured at 450 nm. Candidate peptides that show a high exchange yield (preferably higher than 50%, most preferred higher than 75%) are generally preferred for a generation and production of antibodies or fragments thereof, and/or T cell receptors or fragments thereof, as they show sufficient avidity to the MHC molecules and prevent dissociation of the MHC complexes.

[2] = biological target: HLA-B*07:02 (Homo sapiens, UniProt P01889); assay: MHC binding assay, UV-ligand exchange with β2m ELISA, HLA-B*07:02; details: binding to HLA-B*07:02, UV-ligand exchange
From the text: as §1, §2

| Peptide exchange [1] | Peptide exchange (MHC class I binding score, peptide exchange yield) [2] | Substance |
| --- | --- | --- |
| “++” (>20% = ++) |  | 28 (VILESIFLK; listed as Homo sapiens) [compound 28] |
| “++” (>20% = ++) |  | 29 (RIYDEILQSK; listed as Homo sapiens) [compound 29] |
| “++” (>20% = ++) |  | 30 (RTYGFVLTF; listed as Homo sapiens) [compound 30] |
| “++” (>20% = ++) |  | 32 (KTSNIVKIK; listed as Homo sapiens) [compound 32] |
| “++” (>20% = ++) |  | 33 (SVFEGDSIVLK; listed as Homo sapiens) [compound 33] |
| “+++” (>50 = +++) |  | 34 (SVYSETSNMDK; listed as Homo sapiens) [compound 34] |
| “+++” (>50 = +++) |  | 35 (ATKSPAKPK; listed as Homo sapiens) [compound 35] |
| “++” (>20% = ++) |  | 36 (KAKAAAKPK; listed as Homo sapiens) [compound 36] |
| “+++” (>50 = +++) |  | 37 (KAKKPAGAAK; listed as Homo sapiens) [compound 37] |
| “+++” (>50 = +++) |  | 38 (KARKSAGAAK; listed as Homo sapiens) [compound 38] |
| “+” (>10% = +) |  | 40 (RSKEYIRKK; listed as Homo sapiens) [compound 40] |
| “++” (>20% = ++) |  | 41 (SVAHLLSKY; listed as Homo sapiens) [compound 41] |
| “++” (>20% = ++) |  | 42 (SVSSSTHFTR; listed as Homo sapiens) [compound 42] |
| “++” (>20% = ++) |  | 43 (KLMETSMGF; listed as Homo sapiens) [compound 43] |
| “++” (>20% = ++) |  | 44 (KVYDPVSEY; listed as Homo sapiens) [compound 44] |
| “+++” (>50 = +++) |  | 45 (VVFPFPVNK; listed as Homo sapiens) [compound 45] |
| “++” (>20% = ++) |  | 46 (RVFPSPMRI; listed as Homo sapiens) [compound 46] |
| “++” (>20% = ++) |  | 47 (SVLDLSVHK; listed as Homo sapiens) [compound 47] |
| “+++” (>50 = +++) |  | 48 (RIKPPGPTAVPK; listed as Homo sapiens) [compound 48] |
| “++” (>20% = ++) |  | 49 (GLLEEALFY; listed as Homo sapiens) [compound 49] |
| “++” (>20% = ++) |  | 51 (ASTTVLALK; listed as Homo sapiens) [compound 51] |
| “+++” (>50 = +++) |  | 52 (KAFNQSSTLTK; listed as Homo sapiens) [compound 52] |
|  | “++” (>20% = ++) | 102 (LPLSMEAKI; listed as Homo sapiens) [compound 102] |

| Peptide exchange [1] | Peptide exchange (MHC class I binding score, peptide exchange yield) [2] | Substance |
| --- | --- | --- |
|  | “++” (>20% = ++) | 103 (IPANTEKASF; listed as Homo sapiens) [compound 103] |
|  | “+++” (>50 = +++) | 104 (RPMTPTQIGPSL; listed as Homo sapiens) [compound 104] |
|  | “+++” (>50 = +++) | 105 (NPLTKLLAI; listed as Homo sapiens) [compound 105] |
|  | “++” (>20% = ++) | 106 (KAFKWFSAL; listed as Homo sapiens) [compound 106] |
| “++” (>20% = ++) |  | 208 (KLNPQQAPLY; listed as Homo sapiens) [compound 208] |
| “++” (>20% = ++) |  | 209 (KTLPAMLGTGK; listed as Homo sapiens) [compound 209] |
| “+++” (>50 = +++) |  | 210 (RMYSQLKTLQK; listed as Homo sapiens) [compound 210] |
| “+++” (>50 = +++) |  | 211 (ATYNKQPMYR; listed as Homo sapiens) [compound 211] |
| “+” (>10% = +) |  | 212 (LLWHWDTTQSLK; listed as Homo sapiens) [compound 212] |
| “++” (>20% = ++) |  | 213 (RVYNIYIRR; listed as Homo sapiens) [compound 213] |
| “+++” (>50 = +++) |  | 214 (ATGAATPKK; listed as Homo sapiens) [compound 214] |
| “++” (>20% = ++) |  | 215 (KATGAATPK; listed as Homo sapiens) [compound 215] |
| “++” (>20% = ++) |  | 216 (RIKAPSRNTIQK; listed as Homo sapiens) [compound 216] |
|  | “++++” (>75% = ++++) | 225 (LPARFYQAL; listed as Homo sapiens) [compound 225] |
|  | “++” (>20% = ++) | 226 (YLNRHLHTW; listed as Homo sapiens) [compound 226] |
|  | “++++” (>75% = ++++) | 227 (APINKAGSFL; listed as Homo sapiens) [compound 227] |
|  | “++++” (>75% = ++++) | 228 (SPRITFPSL; listed as Homo sapiens) [compound 228] |
|  | “++++” (>75% = ++++) | 229 (SPLGSLARSSL; listed as Homo sapiens) [compound 229] |
|  | “+++” (>50 = +++) | 230 (KPMKSVLVV; listed as Homo sapiens) [compound 230] |
|  | “++” (>20% = ++) | 231 (MPLSTIREV; listed as Homo sapiens) [compound 231] |
|  | “+++” (>50 = +++) | 232 (APRPAGSYL; listed as Homo sapiens) [compound 232] |
|  | “+++” (>50 = +++) | 233 (SPRVYWLGL; listed as Homo sapiens) [compound 233] |
|  | “++” (>20% = ++) | 234 (SPKESENAL; listed as Homo sapiens) [compound 234] |

| Peptide exchange [1] | Peptide exchange (MHC class I binding score, peptide exchange yield) [2] | Substance |
| --- | --- | --- |
|  | “++” (>20% = ++) | 235 (SPSLPSRTL; listed as Homo sapiens) [compound 235] |
|  | “+++” (>50 = +++) | 236 (RPSNKAPLL; listed as Homo sapiens) [compound 236] |
|  | “++” (>20% = ++) | 237 (SPWLHAPSL; listed as Homo sapiens) [compound 237] |
|  | “+++” (>50 = +++) | 238 (SPRSWIQVQI; listed as Homo sapiens) [compound 238] |
|  | “++” (>20% = ++) | 239 (APSKTSLIM; listed as Homo sapiens) [compound 239] |
|  | “+++” (>50 = +++) | 240 (SPSLPNITL; listed as Homo sapiens) [compound 240] |
|  | “+++” (>50 = +++) | 241 (APAPAEKTPV; listed as Homo sapiens) [compound 241] |
|  | “++” (>20% = ++) | 242 (SPFSFHHVL; listed as Homo sapiens) [compound 242] |
|  | “++” (>20% = ++) | 243 (LPKVQSIQL; listed as Homo sapiens) [compound 243] |
|  | “+++” (>50 = +++) | 244 (MPSSDTTVTF; listed as Homo sapiens) [compound 244] |
|  | “++” (>20% = ++) | 245 (SPLSHHSQL; listed as Homo sapiens) [compound 245] |
|  | “++” (>20% = ++) | 246 (YPGWHSTTI; listed as Homo sapiens) [compound 246] |
|  | “++” (>20% = ++) | 247 (QPSPARAPAEL; listed as Homo sapiens) [compound 247] |
|  | “++” (>20% = ++) | 248 (LPYDSKHQI; listed as Homo sapiens) [compound 248] |
|  | “++” (>20% = ++) | 249 (SPADHRGYASL; listed as Homo sapiens) [compound 249] |
|  | “++” (>20% = ++) | 250 (VPNLQTVSV; listed as Homo sapiens) [compound 250] |
|  | “+++” (>50 = +++) | 251 (QPRLFTMDL; listed as Homo sapiens) [compound 251] |
|  | “++” (>20% = ++) | 252 (RPHIPISKL; listed as Homo sapiens) [compound 252] |
|  | “+++” (>50 = +++) | 253 (RPFADLLGTAF; listed as Homo sapiens) [compound 253] |
|  | “+++” (>50 = +++) | 254 (SPRNLQPQRAAL; listed as Homo sapiens) [compound 254] |
|  | “++” (>20% = ++) | 255 (YPGSDRIML; listed as Homo sapiens) [compound 255] |
